{"source": "paper doi:10.1101/706143", "key": {"[1]": {"biological_target": "Cas7 (V. cholerae Type I-F variant CRISPR-Cas system) (V. cholerae)", "test": "cryo-EM structure"}, "[2]": {"biological_target": "TniQ (transposition protein of the Vibrio cholerae Tn6677 transposon) (V. cholerae)", "test": "cryo-EM structure"}}}
{"substance": "Cas7 (V. cholerae Type I-F variant CRISPR-Cas system) (natural protein)", "values": [{"measurement": "stoichiometry N", "setting": "[1]", "result": 6}]}
{"substance": "TniQ (transposition protein of the Vibrio cholerae Tn6677 transposon) (natural protein)", "values": [{"measurement": "stoichiometry N", "setting": "[2]", "result": 2}]}
